In PMC8611094:

Biological target: T1, DHX36 (UniProt Q9H2U1)
T1 sequence (Q9H2U1 whole entry, looked up): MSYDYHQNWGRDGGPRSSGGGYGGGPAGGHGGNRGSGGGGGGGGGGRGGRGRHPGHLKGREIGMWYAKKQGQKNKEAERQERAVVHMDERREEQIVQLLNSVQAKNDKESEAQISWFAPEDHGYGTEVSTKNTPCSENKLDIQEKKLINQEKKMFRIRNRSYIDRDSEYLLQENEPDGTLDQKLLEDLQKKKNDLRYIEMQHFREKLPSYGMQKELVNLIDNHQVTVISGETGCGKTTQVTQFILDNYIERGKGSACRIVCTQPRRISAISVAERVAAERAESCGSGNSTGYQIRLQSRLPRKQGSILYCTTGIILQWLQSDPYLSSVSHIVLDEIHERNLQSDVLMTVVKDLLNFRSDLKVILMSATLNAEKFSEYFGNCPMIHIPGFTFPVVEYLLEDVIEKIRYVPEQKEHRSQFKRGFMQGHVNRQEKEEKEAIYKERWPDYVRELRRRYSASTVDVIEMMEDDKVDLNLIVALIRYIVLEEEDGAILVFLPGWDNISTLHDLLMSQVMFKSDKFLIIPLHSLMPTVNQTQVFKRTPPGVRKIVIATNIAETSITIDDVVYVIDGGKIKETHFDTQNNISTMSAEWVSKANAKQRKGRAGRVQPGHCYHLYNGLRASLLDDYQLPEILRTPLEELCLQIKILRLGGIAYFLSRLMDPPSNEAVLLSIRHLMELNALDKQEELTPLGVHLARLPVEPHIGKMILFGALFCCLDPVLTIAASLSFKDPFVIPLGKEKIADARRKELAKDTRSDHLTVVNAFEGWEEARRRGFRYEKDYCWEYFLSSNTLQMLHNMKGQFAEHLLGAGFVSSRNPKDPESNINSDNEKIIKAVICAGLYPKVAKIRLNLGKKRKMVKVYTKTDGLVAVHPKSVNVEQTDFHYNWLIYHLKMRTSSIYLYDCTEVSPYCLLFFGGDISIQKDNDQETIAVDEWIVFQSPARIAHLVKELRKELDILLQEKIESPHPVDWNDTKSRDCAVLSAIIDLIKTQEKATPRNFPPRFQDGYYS
Experiment: ELISA
Conditions: ELISA performed as in Zyner et al. (ref 43); buffer, salt, pH and temperature not given in the material

UGUGGGAGGGGCGGGUCUGGGUGC [NRAS G4]
Kd: 0.9 nM
